# B1: p6(K)8,18(D)12,22 (peptide)
# peptide: EEQAKTFKDKFDHEAEDKFYQDSGLGKGDFR
# modifications: not checked
# B2: p6 peptide (peptide)
# peptide: EEQAKTFLDKFNHEAEDLFYQSSGLGKGDFR
# modifications: not checked
# B3: p4C13 (peptide)
# peptide: EEQAKTFLDKFNCEAEDLFYQSS
# modifications: not checked
# B4: p4C4 (peptide)
# peptide: EEQCKTFLDKFNHEAEDLFYQSS
# modifications: not checked
# B5: p4C4, 8, 18, 22 (peptide)
# peptide: EEQCKTFCDKFNHEAEDCFYQCS
# modifications: not checked
# B6: p4C7 (peptide)
# peptide: EEQAKTCLDKFNHEAEDLFYQSS
# modifications: not checked
# B7: p4C11 (peptide)
# peptide: EEQAKTFLDKCNHEAEDLFYQSS
# modifications: not checked
# B8: p4C18, 22 (peptide)
# peptide: EEQAKTFLDKFNHEAEDCFYQCS
# modifications: not checked
# B9: p4C2 (peptide)
# peptide: ECQAKTFLDKFNHEAEDLFYQSS
# modifications: not checked
# B10: p4C3 (peptide)
# peptide: EECAKTFLDKFNHEAEDLFYQSS
# modifications: not checked
# B11: p4C15, 19 (peptide)
# peptide: EEQAKTFLDKFNHECEDLCYQSS
# modifications: not checked
# B12: p4C8 (peptide)
# peptide: EEQAKTFCDKFNHEAEDLFYQSS
# modifications: not checked
# B13: p4C5 (peptide)
# peptide: EEQACTFLDKFNHEAEDLFYQSS
# modifications: not checked
# B14: p4C4, 8 (peptide)
# peptide: EEQCKTFCDKFNHEAEDLFYQSS
# modifications: not checked
# B15: p4C10 (peptide)
# peptide: EEQAKTFLDCFNHEAEDLFYQSS
# modifications: not checked
# B16: p4C12 (peptide)
# peptide: EEQAKTFLDKFCHEAEDLFYQSS
# modifications: not checked
# B17: p4C11, 15 (peptide)
# peptide: EEQAKTFLDKCNHECEDLFYQSS
# modifications: not checked
# B18: p4C8, 12 (peptide)
# peptide: EEQAKTFCDKFCHEAEDLFYQSS
# modifications: not checked
# B19: p4C9 (peptide)
# peptide: EEQAKTFLCKFNHEAEDLFYQSS
# modifications: not checked
# B20: p6-dis (peptide)
# peptide: EEQAKTFLDKFNHEAEDLFYQSCGLGKGDFRC
# modifications: not checked
# B21: p6-rigid (peptide)
# peptide: EAAAKEEQAKTFLDKFNHEAEDLFYQSSGLGKGDFR
# modifications: not checked
# B22: p6-rigid-dis (peptide)
# peptide: EAAAKEEQAKTFLDKFNHEAEDLFYQSCGLGKGDFRC
# modifications: not checked
# Target: T1, receptor binding domain (RBD) of SARS-CoV-2 wildtype (2019-nCoV) (SARS-CoV-2), P0DTC2
row,Binder,Kd
1,B1,10 µM

# Target: receptor binding domain (RBD) of SARS-CoV-2 delta variant (B.1.617.2) (SARS-CoV-2), P0DTC2
row,Binder,Kd
1,B2,0.19 µM

# Target: receptor binding domain (RBD) of SARS-CoV-2 alpha variant (B.1.1.7) (SARS-CoV-2), P0DTC2
row,Binder,Kd
1,B2,0.32 µM

# Target: T1, receptor binding domain (RBD) of …
# Remark: another data set of the same source
row,Binder,Kd
1,B3,0.028 µM
2,B4,1.3 µM
3,B5,0.4 µM
4,B6,1.94 µM
5,B7,0.012 µM
6,B8,0.218 µM
7,B9,0.034 µM
8,B10,0.042 µM
9,B11,0.238 µM
10,B12,0.281 µM
11,B13,2.14 µM
12,B14,0.059 µM
13,B15,0.331 µM
14,B16,2.05 µM
15,B17,0.068 µM
16,B18,0.047 µM
17,B19,3.23 µM

# Target: T1, receptor binding domain (RBD) of …
# Remark: another data set of the same source
row,Binder,Kd
1,B20,2.6 µM
2,B21,4.53 µM
3,B22,5.13 µM

# — patent US20250250312A1, “BIFUNCTIONAL PEPTIDE WITH MU[…] VIRUS BINDING PROPERTIES” (priority 2022, published 2025)
